These results are taken from publication PMC5390017.

Experiment [1] concerns the target tau phosphopeptide 194-212 phosphorylated at S202 and T205 (human) (UniProt P10636). The experiment in a line: ITC; MicroCal Auto iTC200, in solution; peptide ~40 µM, mAb 200 µM, 20 steps of 2 µl; fitted to a single set of sites, mAb:tau peptide = 1:2.
Experiment [2] addresses tau phosphopeptide of the C-terminal domain phosphorylated at S422 (cognate peptide of CBTAU-22.1) (human). The experiment is described as above.

Sequence of tau phosphopeptide of the C-terminal domain phosphorylated at S422 (cognate peptide of CBTAU-22.1) (human) (P10636 721-746): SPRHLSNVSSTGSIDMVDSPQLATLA

B1: CBTAU-7.1 (human IgG1) (antibody, V domains shown)
VH: QVQLVESGGGLVQPGGSLRLSCAASGFTFSSYWMHWVRQAPGKGLVWVSRINSDGSDTNYADSVKGRFTFSRDNAKNTLYLQMTSLRAEDTAIYYCTRGRSYGFFDYWGQGALVTVSS
VL: DIVMTQSPDTLSLSPGERATLSCRASQIISSNYLAWYQQQPGQAPRLLIYGASSRATGIPDRFSGSGSATDFTLTISRLEPEDFAVYYCQQYGTSPRTFGQGTKLEIK
Regarding B1, the Kd (commonly the concentration at which binding is half-saturated) in experiment [1] was found to be 5.8 µM.

B2: CBTAU-22.1 (human IgG1) (antibody, V domains shown)
VH: QVQLVQSGAEVKKPGAPVKVSCETSGYRFSDYNVHWVRQAPGQGPEWIGRISPNSGGTKYAQKFQGRVTMTRDMSMNTAYMELSGLRSDDTAVYYCVRGHCDGTTCSRAYWGQGTLVTVSS
VL: DVVMTQSPLSLPVTPGEPASISCRSSQSLLHRSGHKYLHWYLQRPGQSPQVLIYLGSNRASGVPDRFSGSGSGTDFTLKISRVEAEDVGLYYCMQTLQTPWTFGQGTKVEIK
B2: the Kd in experiment [2] was found to be 32.7 µM.
